Measured values taken from patent publication US20210130473A1, “TGFßR1 INHIBITOR-ASGR ANTIBODY CONJUGATES AND USES THEREOF” (Silverback Therapeutics, Inc., priority 2019, published 2021).
Where two headings read alike, the source gives them in different places.

T1: rat ASGR1 on CHO-S cells (rat) (UniProt P02706)
T1 sequence (looked up): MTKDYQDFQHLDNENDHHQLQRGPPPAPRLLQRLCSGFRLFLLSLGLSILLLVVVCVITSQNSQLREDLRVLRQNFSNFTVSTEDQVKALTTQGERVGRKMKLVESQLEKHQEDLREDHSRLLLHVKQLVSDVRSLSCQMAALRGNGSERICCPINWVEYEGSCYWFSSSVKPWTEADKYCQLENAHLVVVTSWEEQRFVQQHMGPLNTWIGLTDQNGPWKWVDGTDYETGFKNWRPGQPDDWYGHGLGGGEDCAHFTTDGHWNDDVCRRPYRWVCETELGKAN


Tests used:
[1] = biological target: T1, rat ASGR1 on CHO-S cells (rat); test: Guava flow cytometry on CHO-S cells expressing rat ASGR1 (repeat of Table 16)
[2] = biological target: Cynomolgus macaque ASGR1 on CHO-S cells (Cynomolgus macaque); test: Guava flow cytometry on CHO-S cells expressing cynomolgus ASGR1
[3] = biological target: T1, rat ASGR1 on CHO-S cells (rat); test: Guava flow cytometry on CHO-S cells expressing rat ASGR1
[4] = biological target: human ASGR1 (asialoglycoprotein receptor 1) on cells (human) (UniProt P07306); test: flow cytometry on HepG2 cells, anti-human IgG PE secondary, MFI (Geo Mean)
[5] = biological target: Cynomolgus macaque ASGR1 on CHO-S cells (Cynomolgus macaque); test: Guava flow cytometry on CHO-S cells expressing cynomolgus ASGR1 (repeat of Table 15)
[6] = biological target: human ASGR1 (asialoglycoprotein receptor 1) on cells (human) (UniProt P07306); test: flow cytometry on HepG2 cells, anti-human IgG PE secondary, MFI (Geo Mean); remark: listed apart in the source

Sequence of human ASGR1 (asialoglycoprotein receptor 1) on cells (human) (P07306 whole entry): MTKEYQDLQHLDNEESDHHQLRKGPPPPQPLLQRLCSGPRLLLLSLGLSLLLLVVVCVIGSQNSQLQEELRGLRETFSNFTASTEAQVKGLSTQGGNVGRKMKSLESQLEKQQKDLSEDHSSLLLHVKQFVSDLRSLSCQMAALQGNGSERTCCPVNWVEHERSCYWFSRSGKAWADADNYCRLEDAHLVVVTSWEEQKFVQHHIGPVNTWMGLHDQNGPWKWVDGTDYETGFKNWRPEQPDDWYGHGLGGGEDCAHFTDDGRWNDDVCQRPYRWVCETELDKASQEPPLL

Row | EC50 [1] [nM] | EC50 [2] [nM] | EC50 [3] [nM] | EC50 (read off the curve) [4] [µg/mL] | EC50 [5] [nM] | EC50 (read off the curve) [6] [µg/mL] | Binder
1 | 0.38 | 0.36 | 0.38 | 0.2 | 0.36 |  | ASGR1 mAb-B (antibody, from another filing, V domains shown) VH: EVQLVESGGGLVKPGGSLRLSCAASGFTFSSYSMNWVRQAPGKGLEWVSSISGSSSYIYYADSVKGRFTISRDNAKNSLYLQMNSLRAEDTAVYFCARGGSRGFDPWGQGTLVTVSS VL: DIQMTQSPSSLSASVGDRVTITCRASQSITSYLNWYQQKPGKAPKLLIYTASSLQSGVPSRFSGSGSGTDFTLTISSLQPEDFATYYCQQSHSFPFTFGPGTKVDIK
2 | 3.22 | 1.07 | 3.22 | 0.5 | 1.07 | 0.6 | ASGR1 mAb-A (antibody, from another filing, V domains shown) VH: QVQLVQSGTEVKKPGASVKVSCKASGYTFTNYDINWVRQATGQGLEWMGWMHPNSGNTGYAQKFQGRVTLTRNTSISTAYMELSSLRSEDTAVYYCASSSGWYYFDYWGQGTLVTVSS VL: DIVMTQSPDSLAVSLGERATINCKSSQSILHSSNNNNYLAWFQQKPGQPPKLLLYWASTRESGVPDRFSGSGSGTDFTLTISSLQPEDVAVYYCQQYYNTPVTFGPGTKVGIK
